Measured values taken from patent US5945585.

Columns and labels:
caproyl-ACP (10:0-ACP) = settings: scale: pmoles per min per microliter of cell lysate
lauryl-ACP (12:0-ACP) = settings: scale: pmoles per min per microliter of cell lysate
[1] = biological target: [14C]oleoyl-ACP made from E. coli acyl carrier protein (E. coli) (UniProt P0A6A8); settings: scale: pmoles per min per microliter of cell lysate
[2] = biological target: [14C]oleoyl-ACP made from E. coli acyl carrier protein (E. coli) (UniProt P0A6A8); settings: scale: times the E. coli background thioesterase activity
[3] = biological target: [14C]stearoyl-ACP made from E. coli acyl carrier protein (E. coli) (UniProt P0A6A8)
[4] = biological target: [14C]oleoyl-ACP made from E. coli acyl carrier protein (E. coli) (UniProt P0A6A8)

Question: What does the source list for “β-galactosidase fusion protein of the Cuphea viscossisima oleoyl-ACP thioesterase precursor (p1A insert in pBluescript) (enzyme)”?
Answer: activity per microliter of cell lysate (caproyl-ACP (10:0-ACP)): 0.05; activity per microliter of cell lysate (lauryl-ACP (12:0-ACP)): 0.1; activity per microliter of cell lysate [1]: 15.5

Question: Which Oleoyl-ACP thioesterase activity [2] does the source give for “β-galactosidase fusion protein of the Brassica napus oleoyl-ACP thioesterase (p5C insert in pBluescript SK, correct orientation) (enzyme)” here?
Answer: 26

B1: soybean seed acyl-ACP thioesterase, purified from developing soybean seeds (Glycine max cultivar Wye) (enzyme)
chain: RVEADPGTLADRLRVGSLTEDGLSYKEKFIVRSYEVGINKTATVETIANLLQEVGCNHAQSVGYSTDGFATTPTMRKLRLIWVTARMHIEIYKYPAWSDIVEIETWCQGEGRVGTRRDFILKDYATDEVIGRATSKWVMMNQDTRRLQKVSDDVKEEYLVFCPREPRLAIPEADSNSLKKIPKLEDPAQYSRLGLVPRRADLDMNQHVNNVTYIGWVLESMPQEIIDSHELQSITLDYRRECGQHDIVDSLTSVEAIQGGAEAVPELKGTNGSATAREDKHEHQQFLHLLRLSTEGLEINRGRTEWRKKAPR
Question: Which Net pmol/µL/min (standard acyl-ACP thioesterase assay) [3] does the source give for B1 here?
Answer: 4.07 pmol/µL/min

B2: soybean seed acyl-ACP thioesterase expressed from the phaseolin:soybean thioesterase transgene (pZPHTE1) in Brassica napus line 241 (enzyme)
chain: B1 chain
Question: Which Thioesterase Activity (nmole min^-1 embryo^-1), nmoles of 18:1-ACP hydrolyzed per embryo per minute (nmole min^-1 embryo^-1) [4] does the source give for B2 here?
Answer: 4.53
